Source: publication PMC11467389

Experiments:
[1] = MG132 6 h, Flag IP, ubiquitin blot; details: glycan lost; control: Flag-PDK1 WT
[2] = CHX chase, anti-Flag Western blot (half-life); details: glycan lost; control: Flag-PDK1 WT
[3] = CHX chase of Flag-PDK1, Western blot (half-life); details: glycan lost; control: rhWnt3a alone
[4] = Western blot of endogenous PDK1 in ST2 cells; details: glycan lost; control: rhWnt3a alone

In the case of “PDK1 (pyruvate dehydrogenase kinase 1): S174A”, the “other: ubiquitination” value [1] is reported as “increases” and the degradation_or_half_life [2] is reported as “decreases”.
In the case of “PDK1 (pyruvate dehydrogenase kinase 1): OSMI”, the degradation_or_half_life [3] is reported as “decreases”.
For “PDK1 (pyruvate dehydrogenase kinase 1): DON”, the expression_or_secretion [4] was “decreases”.
